This assay concerns the target T1, hResistin (human, UniProt Q9HD89 19-108).
T1 construct: Immobilised on the SPR chip; also called human resistin; resistin protein
T1 sequence (looked up): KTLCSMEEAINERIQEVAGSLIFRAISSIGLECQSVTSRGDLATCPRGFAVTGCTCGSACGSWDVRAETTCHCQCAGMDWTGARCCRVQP
Put plainly: SPR (Reichert SR7500DC), hResistin immobilised on CMDH chip, peptide injected in PBS. On the procedure: To measure the direct binding of hResistin and VS_peptide (SEQ ID NO: 2), SPR analysis was performed using Reichert SR7500DC system. hResistin (1.8 ug) and hPCSK9 (1.6 ug) proteins were immobilized on the carboxymethyl dextran hydrogel surface sensor chip (CMDH chip, Cat#: 13206066) by using a 10 mM sodium acetate immobilization buffer (pH 5.5 or pH 4.5). VS_peptide (SEQ ID NO: 2) diluted in PBS buffer (pH 7.4) in a dose-dependent manner was injected into the sensor chip (flow rate: 30 μl/min, association time: 3 min) to measure the response unit (RU) for binding strength. After the measurement of RU values for binding strength, PBS buffer (pH 7.4) was allowed to flow over the sensor chip at a rate of 30 μl/min for 3 minutes to measure dissociation RU values of VS_peptide (SEQ ID NO: 2) from hResistin immobilized on the chip. The dissociation equilibrium constant (KD) of VS_peptide (SEQ ID NO: 2) for hResistin was derived using Scrubber2 software (KD=Kd/Kₐ, Kₐ=association rate, Kd=dissociation rate).

B1: VS_peptide (SEQ ID NO: 2) (peptide)
peptide: PPPPGPPPPPVSTSSGSDES
notes: Synthesised by Peptron, Korea; also called peptide VS; Existing peptide
In turn, B1 yielded a Kd of 3.7 mM.

The record behind these values is patent publication US20200157147A1 (SEOUL NATIONAL UNIVERSITY HOSPITAL, published 2020).
